Measurements taken from the DeepSol protein solubility set.

experiment: soluble on expression in E. coli; label from the status in PepcDB or PDB records

| Sequence | soluble on expression in E. coli |
| --- | --- |
| MGSDKIHHHHHHMYLGIDVGGTHTDAVVLDAQKRIQAWAKVPTLHHDLLSSVTQALDSVLQSVAAQDIVRLNLSTTLSTNAIVESKTEDVGVLVSSGPGIDPENFRQGGFFFPLSGSIDHRGKVIAAMEQDELAAAVRRCCDSGIRVYAAVGKFSTRNPDHEETMAHEAMQCGDFVSMGHRLSGQLSFPRRVATAYYNSAVWRLYNSFADAVESSARAKGVTAPVHILKADGGTMPLAVSRRMPVESILSGPAASVMGIVALYDIREDAVILDIGGTTTDIALFASGSPVIENDGISVGSYPTLVRALRTLSIGVGGDSRLRIAAGAVRVGPDRSGPCVANGGTHVALMDAMNYLEVAAVGDVEASREAVRQLASLWDMYPEKLAREALDTAVNTICAAVDRLLDEVNAQPVYTIIELLDGVKLNPGRVFVMGGPAAAFAPLLRNVMNRRIDVPRDHAVANAVGAALTRTTAELELFADTEKGLVFVPTLGLRREAPLGYNLDDAVADAGRYLTESLAGMGIHIRPEDVDVLEAGSFNMVDMYGGKGRNIRVKCQVRPGISL | not soluble |
| MGSDKIHHHHHHMYLKVYKEDVIEGLQKAANIIPAKTGAAYLRSIWLNAADGTLSVMATDSNIEFRGTYTAEVTEPGLAGVQGRAFVDLLRKLPAGEIVLQLDAEANVLRIEQGRRKYKLPVNDPVWFQNFSDFPADGAVVWSGDFLQELIDRIAFCISDEDAVEAIACLFMKPVAEGRIEACGLNGHQFAMLRFLHDDLHAKLPAEGVLVQKKYLGELKKWLGADEIELNISEKRMHLRTGDGRETFSLPLSSYQYPDYMNFIAKLQGEGVSNLEVDRKEGMDALDRLQIFNSDNNRCTYFDLSGGEVVLTAQGQDVGSASESLEASYDGDIRRIAFPTRNLIDIMNHYQSGRLRLTLTGAEGPCGISGEEDPEYQVIVMPMKIVEETYYSEEEV | not soluble |
| MGSDKIHHHHHHMYLVEVFFTYRQPQKLPISNISYLINQIIEQWRYNGQIIGREIPLFVAVQNNEEGFALRVTCPEQQSLLPTFNNIQVDKALKQAKSAGIFFDSFQIIADDLNSDITYSKEVATWQVLYTTYLQSCSPLHSGDNLLPIPLYKQFKNIPHLSMDIIKWQENWQACDQLQMNGSILEQQALYEISDFNSHLTKHGYYLTQEIEKHTGIPTFYYLYRIGGDDLQSEQQRLCPNCQQKWHLDKPLFNLFHFKCDHCRLVSNLSWHWQ | not soluble |
| MGSDKIHHHHHHMYNNINYKVLWGHSEYDGSFEIMEFRQLSYFISVAKYLSFTKAAEEHHIAQTAISQQISTLEKQLNVKLFVRNNRAVELTDAGRVLLKEADLITSRVVEAERKTKQAALGFEGSLNVGILGSSEKNFLPVILKRFHKLYPKIGINLSRNSYKKLADDMKGGHLDITFIFPYELNDISHVKYRKLFDYEICLVVNKEHRLARYKKIDVKEIKNEKFIVVGKEEAPSTVKQMRKNCMGDGFKLNVVAECKNLDTMLIMVEAGMGVALVPTCVANDSNNNISYIELENSKQIVEIGVAWMEGNMNPTLKLFLGVLSDLYWDN | not soluble |
| MGSDKIHHHHHHMYVAVKGGEKAIRAAHALQEQKRRGDGRLPELSVEQIGDQLSLAVDRVMTEGGIADRELAALALKQASGDNIEAIFLLRAYRTTLPRLAVSEPINTAEMRLERRISAVYKDIPGGQLLGPTYDYTHRLLDFTLLANGEAPSVQQADGEAEPTPHVFSLLTQQGLAKTEEDRGTPPDDITRTPPVYPCSRSSRLQQLMRGDEGYLLALAYSTQRGYGRNHPFAGEIRSGYVQVEIVPEELGFSVNIGELLLTECEMVNGFVAPQEEPPHFTRGYGLTFGMSERKAMAMALVDRALQAPDYDEEIAGPAQDEEFVLAHADNVEAAGFVSHLKLPHYVDFQAELALLKRLQRENERG | not soluble |
| MGSDKIHHHHHHNGPIVKGSKNYITKKENLEHFNDISMSGSANIIYQQDSSSRIEIYGSDNIVELLETKVNGKTLNIKFKKNVNIIDKGKLEIKVFSPDLNGLTLNGSGGILFANGIHTEGDLKVTINGSGNLGGSTFDTGHLAISIHGSGDVRLKQIDSKTCSASISGSGNITLDGMTGAAKYNISGSGNIKAADLEATDVYAGISGSGNISCFVNGKLGGHVSGSGNVAYKGNPQAIDFPHKKLRKLD | not soluble |
| MGSDKIHHHHHHNRASAQTVSEKDATSTQAPVFLTYTVTKENETVEIVGQVTADTKKVTSKVSGDVLEIYVEEGDVVQVGQKIAKIDDTDYQISYLSALNSYKTSPTEINRLNLEKAKENLENTTVVSPVSGVVQAVNVDVGDRVSVGTSIVTIVETDTLRVEGSISEYDLKNVKEGMKAVFTFEQLGLTLTGKVKRISPVAETSGGVTVIPVEFSFDQTPPSLVIPGLTCDVEIIIKEATSSFFIPKEAVRQDQNGYYVMKQTPQGPQKVYVELGEELNDKIEIKKGVSEGDVLLLIPSQQEIQRLRTRQGLPMFGPGGGRAR | not soluble |
